The source of these data is article PMC2789667 (Biochemistry, 2009).

This data set deals with the molecule itself. Put plainly: SEC. In general terms: In gel filtration, larger molecules generally elute earlier.

B1: Recombinant rat NADPH-cytochrome P450 reductase with a single amino acid mutation of K56Q (enzyme, UniProt P00388 1-678, looked up)
chain: MGDSHEDTSATMPEAVAEEVSLFSTTDMVLFSLIVGVLTYWFIFRKKKEEIPEFSQIQTTAPPVKESSFVEKMKKTGRNIIVFYGSQTGTAEEFANRLSKDAHRYGMRGMSADPEEYDLADLSSLPEIDKSLVVFCMATYGEGDPTDNAQDFYDWLQETDVDLTGVKFAVFGLGNKTYEHFNAMGKYVDQRLEQLGAQRIFELGLGDDDGNLEEDFITWREQFWPAVCEFFGVEATGEESSIRQYELVVHEDMDVAKVYTGEMGRLKSYENQKPPFDAKNPFLAAVTANRKLNQGTERHLMHLELDISDSKIRYESGDHVAVYPANDSALVNQIGEILGADLDVIMSLNNLDEESNKKHPFPCPTTYRTALTYYLDITNPPRTNVLYELAQYASEPSEQEHLHKMASSSGEGKELYLSWVVEARRHILAILQDYPSLRPPIDHLCELLPRLQARYYSIASSSKVHPNSVHICAVAVEYEAKSGRVNKGVATSWLRAKEPAGENGGRALVPMFVRKSQFRLPFKSTTPVIMVGPGTGIAPFMGFIQERAWLREQGKEVGETLLYYGCRRSDEDYLYREELARFHKDGALTQLNVAFSREQAHKVYVQHLLKRDREHLWKLIHEGGAHIYVCGDARNMAKDVQNTFYDIVAEFGPMEHTQAVDYVKKLMTKGRYSLDVWS
Consider B1, for which the binding result is “binds”.
